Our source for the Kd values is patent US20140377287A1 (published 2014).

The target of experiment [1] is T1, human Trop-2 (human, UniProt P09758 27-323).
T1 construct: whole, on cells; Type-I transmembrane glycoprotein; also called EGP-1; epithelial glycoprotein-1
T1 sequence (looked up): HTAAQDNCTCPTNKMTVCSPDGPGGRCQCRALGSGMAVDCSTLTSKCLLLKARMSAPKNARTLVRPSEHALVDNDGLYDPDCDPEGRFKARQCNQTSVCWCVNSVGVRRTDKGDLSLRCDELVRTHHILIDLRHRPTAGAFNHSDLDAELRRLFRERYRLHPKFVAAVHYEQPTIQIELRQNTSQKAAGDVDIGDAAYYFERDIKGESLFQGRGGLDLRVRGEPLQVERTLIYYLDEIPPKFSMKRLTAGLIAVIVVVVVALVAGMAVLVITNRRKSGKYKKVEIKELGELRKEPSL
Nature of the experiment: cell binding assay on Trop-2-expressing cells (cell line not stated).

In experiment [2] the target is T1, human Trop-2. Nature of the experiment: cell binding on NCI-N87 cells, anti-mouse-HRP secondary, luminescence, 0.03 to 66 nM, 4 C.

Usually Kd stands for the constant that tells how readily two partners part at equilibrium.

As for hRS7-CL2A-SN-38 (antibody), the Kd in experiment [1] was found to be 1.2 nM.
Same read-out and setting: the result for hRS7-CL2-SN-38 (antibody) reads 1.2 nM.

B1: murine RS7 (antibody, V domains shown)
VH: VKLQESGPELKKPGETVKISCKASGYTFTNYGMNWVKQAPGKGLKWMGWINTYTGEPTYTDDFKGRFAFSLETSATTAYLQINNLKSEDMATYFCARGGFGSSYWYFDVWGQGTTVTVSS
VL: DIQLTQSHKFMSTSVGDRVSITCKASQDVSIAVAWYQQKPGQSPKLLIYSASYRYTGVPDRFTGSGSGTDFTFTISSVQAEDLAVYYCQQHYITPLTFGAGTKLELK
Consider B1, for which, in experiment [2], the affinity, expressed as Kd, was 0.57 nM.
